{"source": "paper PMC8464830", "about": "(Biomolecules, 2021)", "binders": {"B1": {"name": "HIV-1 MA clade C (92BR025.8) construct with residue 1-109, lacking the C-terminal helix α5 (domain or fragment)", "chain": "MGARASILRGGKLDAWERIKLKPGGKKHYMMKHLVWASRELERFALDPGLLETSEGCKQIMKQLQPALQTGTKELISLHNTVATLYCVHEKIDVRDTKEALDKIKEEQN"}}, "molecular_target": "T1, human Calmodulin-1 (human, UniProt P0DP23 1-149)", "T1 construct": "also called hCaM-1; hCaM", "experiment": "SPR", "conditions": "both partners purified"}
{"binder": "B1", "values": [{"measurement": "binding result", "result": "binds"}]}
